The values that follow come from publication PMC4808650.

Assay [1] deals with Chlamydomonas outer arm axonemal dynein, α and β HC complex from strain oda2-t-lc2-bccp (Chlamydomonas reinhardtii) (UniProt Q39565).
For assay [2] the target is unchanged. This is another data set of the same source.

Where two headings read alike, the source gives them in different places.

Sequence of UniProt Q39565 (Q39565 whole entry, looked up, one chain of several): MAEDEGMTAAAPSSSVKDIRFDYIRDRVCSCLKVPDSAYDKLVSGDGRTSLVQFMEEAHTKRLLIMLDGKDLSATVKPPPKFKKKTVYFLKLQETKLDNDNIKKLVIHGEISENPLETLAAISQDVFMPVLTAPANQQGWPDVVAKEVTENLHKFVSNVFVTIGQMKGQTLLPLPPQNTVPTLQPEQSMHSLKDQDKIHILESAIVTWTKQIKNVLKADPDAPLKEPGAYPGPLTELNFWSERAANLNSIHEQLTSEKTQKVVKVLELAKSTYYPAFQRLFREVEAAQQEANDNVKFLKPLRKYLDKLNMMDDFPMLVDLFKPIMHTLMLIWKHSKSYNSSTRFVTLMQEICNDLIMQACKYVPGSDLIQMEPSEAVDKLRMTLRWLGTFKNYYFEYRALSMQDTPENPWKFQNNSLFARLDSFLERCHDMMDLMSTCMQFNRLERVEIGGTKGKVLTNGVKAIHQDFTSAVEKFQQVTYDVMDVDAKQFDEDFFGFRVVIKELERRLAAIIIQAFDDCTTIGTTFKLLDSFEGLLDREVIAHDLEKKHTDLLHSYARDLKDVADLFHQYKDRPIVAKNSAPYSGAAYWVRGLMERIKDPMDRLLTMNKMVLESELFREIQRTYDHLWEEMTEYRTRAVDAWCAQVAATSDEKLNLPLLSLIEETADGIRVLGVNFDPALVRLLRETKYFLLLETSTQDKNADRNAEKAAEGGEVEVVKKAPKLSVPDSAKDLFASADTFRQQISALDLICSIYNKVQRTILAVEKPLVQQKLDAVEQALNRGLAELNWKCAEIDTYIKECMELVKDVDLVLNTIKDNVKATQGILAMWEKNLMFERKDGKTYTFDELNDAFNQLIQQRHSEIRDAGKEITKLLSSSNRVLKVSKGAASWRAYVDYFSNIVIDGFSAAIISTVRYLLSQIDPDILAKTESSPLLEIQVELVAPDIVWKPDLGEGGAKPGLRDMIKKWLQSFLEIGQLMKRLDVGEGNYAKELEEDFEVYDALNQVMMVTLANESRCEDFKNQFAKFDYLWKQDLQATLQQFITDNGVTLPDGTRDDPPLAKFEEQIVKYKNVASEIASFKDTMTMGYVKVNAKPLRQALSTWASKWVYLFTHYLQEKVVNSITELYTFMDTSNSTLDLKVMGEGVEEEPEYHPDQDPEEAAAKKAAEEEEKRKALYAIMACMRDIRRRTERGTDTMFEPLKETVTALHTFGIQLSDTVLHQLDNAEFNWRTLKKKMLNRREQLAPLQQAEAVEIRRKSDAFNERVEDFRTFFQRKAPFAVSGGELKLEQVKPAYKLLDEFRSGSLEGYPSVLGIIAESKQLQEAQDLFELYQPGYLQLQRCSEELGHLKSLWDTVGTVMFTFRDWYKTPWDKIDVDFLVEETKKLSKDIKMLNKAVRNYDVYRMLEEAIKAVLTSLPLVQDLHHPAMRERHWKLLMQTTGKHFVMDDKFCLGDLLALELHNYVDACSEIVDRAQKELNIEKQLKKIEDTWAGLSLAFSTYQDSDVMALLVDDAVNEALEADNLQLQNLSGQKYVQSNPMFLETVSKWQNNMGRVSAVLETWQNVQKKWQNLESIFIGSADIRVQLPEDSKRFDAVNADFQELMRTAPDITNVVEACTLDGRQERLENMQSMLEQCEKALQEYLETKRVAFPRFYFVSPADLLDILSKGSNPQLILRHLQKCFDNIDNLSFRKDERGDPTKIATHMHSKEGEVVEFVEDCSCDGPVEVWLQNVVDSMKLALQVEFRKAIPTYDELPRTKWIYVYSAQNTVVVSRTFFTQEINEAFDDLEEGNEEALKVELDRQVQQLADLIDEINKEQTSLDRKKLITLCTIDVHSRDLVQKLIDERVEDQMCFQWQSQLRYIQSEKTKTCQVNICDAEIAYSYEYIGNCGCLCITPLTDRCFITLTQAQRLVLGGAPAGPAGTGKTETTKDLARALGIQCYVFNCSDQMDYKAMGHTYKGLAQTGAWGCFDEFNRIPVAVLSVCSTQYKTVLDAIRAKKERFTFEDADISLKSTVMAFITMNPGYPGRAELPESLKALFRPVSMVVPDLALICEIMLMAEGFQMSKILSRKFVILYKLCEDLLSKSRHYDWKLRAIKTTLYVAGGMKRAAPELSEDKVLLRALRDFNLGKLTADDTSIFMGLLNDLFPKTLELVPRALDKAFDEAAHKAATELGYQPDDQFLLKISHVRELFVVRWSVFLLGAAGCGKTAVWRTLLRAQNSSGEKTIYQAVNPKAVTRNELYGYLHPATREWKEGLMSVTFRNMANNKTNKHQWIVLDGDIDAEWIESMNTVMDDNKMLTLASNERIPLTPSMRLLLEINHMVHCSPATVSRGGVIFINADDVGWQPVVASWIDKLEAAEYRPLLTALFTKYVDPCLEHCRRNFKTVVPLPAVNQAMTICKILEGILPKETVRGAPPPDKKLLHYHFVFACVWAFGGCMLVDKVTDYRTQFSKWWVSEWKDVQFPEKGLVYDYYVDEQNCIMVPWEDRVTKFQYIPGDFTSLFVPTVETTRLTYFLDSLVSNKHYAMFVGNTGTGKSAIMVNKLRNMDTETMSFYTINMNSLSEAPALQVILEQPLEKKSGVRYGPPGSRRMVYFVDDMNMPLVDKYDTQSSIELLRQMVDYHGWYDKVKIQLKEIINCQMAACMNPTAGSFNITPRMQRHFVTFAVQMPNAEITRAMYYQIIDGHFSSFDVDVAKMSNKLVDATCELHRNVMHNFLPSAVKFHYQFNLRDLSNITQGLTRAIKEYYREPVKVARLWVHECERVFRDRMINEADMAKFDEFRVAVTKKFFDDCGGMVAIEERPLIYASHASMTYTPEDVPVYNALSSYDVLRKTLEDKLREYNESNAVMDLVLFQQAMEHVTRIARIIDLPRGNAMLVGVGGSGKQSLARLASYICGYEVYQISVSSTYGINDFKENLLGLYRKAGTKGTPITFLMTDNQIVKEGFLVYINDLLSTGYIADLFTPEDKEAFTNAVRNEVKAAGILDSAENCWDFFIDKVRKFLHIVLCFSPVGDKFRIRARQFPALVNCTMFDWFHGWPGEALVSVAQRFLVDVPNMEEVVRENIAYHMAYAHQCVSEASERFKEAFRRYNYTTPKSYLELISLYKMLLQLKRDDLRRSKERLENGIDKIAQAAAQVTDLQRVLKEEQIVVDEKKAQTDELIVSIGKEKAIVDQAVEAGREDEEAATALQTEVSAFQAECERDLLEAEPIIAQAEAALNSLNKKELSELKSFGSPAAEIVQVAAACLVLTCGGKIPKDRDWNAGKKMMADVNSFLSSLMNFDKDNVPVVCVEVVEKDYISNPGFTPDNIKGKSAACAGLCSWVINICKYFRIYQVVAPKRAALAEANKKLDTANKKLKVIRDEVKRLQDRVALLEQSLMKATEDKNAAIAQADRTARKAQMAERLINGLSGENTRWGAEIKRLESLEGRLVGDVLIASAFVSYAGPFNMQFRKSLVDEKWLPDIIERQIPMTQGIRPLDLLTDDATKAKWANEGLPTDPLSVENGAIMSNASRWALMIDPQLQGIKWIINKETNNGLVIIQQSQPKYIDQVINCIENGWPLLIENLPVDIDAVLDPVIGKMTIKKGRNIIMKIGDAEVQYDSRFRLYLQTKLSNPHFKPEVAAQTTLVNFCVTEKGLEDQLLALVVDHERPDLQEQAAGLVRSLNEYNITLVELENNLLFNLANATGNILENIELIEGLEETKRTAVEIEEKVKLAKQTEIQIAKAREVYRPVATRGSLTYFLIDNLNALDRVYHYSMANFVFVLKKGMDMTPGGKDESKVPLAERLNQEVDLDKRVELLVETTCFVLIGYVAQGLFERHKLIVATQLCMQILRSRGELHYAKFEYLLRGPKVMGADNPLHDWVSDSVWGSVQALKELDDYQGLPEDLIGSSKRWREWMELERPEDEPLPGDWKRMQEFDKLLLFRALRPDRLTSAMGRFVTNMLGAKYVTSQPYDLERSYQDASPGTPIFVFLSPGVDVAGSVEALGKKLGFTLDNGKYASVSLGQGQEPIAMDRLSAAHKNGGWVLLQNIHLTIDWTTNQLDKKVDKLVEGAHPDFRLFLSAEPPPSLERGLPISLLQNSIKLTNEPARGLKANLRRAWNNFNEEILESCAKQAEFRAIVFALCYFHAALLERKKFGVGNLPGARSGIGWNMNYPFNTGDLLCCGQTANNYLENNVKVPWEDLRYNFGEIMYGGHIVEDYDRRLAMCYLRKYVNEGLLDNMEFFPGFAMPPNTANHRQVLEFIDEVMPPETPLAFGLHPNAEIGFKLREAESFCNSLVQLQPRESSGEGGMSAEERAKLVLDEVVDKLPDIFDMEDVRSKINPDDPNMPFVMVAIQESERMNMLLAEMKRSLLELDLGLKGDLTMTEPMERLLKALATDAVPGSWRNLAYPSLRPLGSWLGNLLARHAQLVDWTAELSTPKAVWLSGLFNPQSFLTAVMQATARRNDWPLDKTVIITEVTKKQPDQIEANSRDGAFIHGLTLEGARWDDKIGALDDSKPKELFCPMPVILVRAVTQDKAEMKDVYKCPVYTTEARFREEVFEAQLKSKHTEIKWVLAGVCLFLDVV

In assay [1], “Chlamydomonas axonemal microtubules from SIRT2-deacetylated tubulin (complex)” displayed an L0 of microtubule gliding (microtubule length at vmax/2) of 0.39 μm and a vmax of microtubule gliding on dynein-coated slides (fit to Eq. 1) of 1.66 μm/s.

Take “Chlamydomonas axonemal microtubules, untreated (complex)”: in assay [1], the L0 of microtubule gliding (microtubule length at vmax/2) worked out at 0.43 μm and the vmax of microtubule gliding on dynein-coated slides (fit to Eq. 1) turned out to be 2.09 μm/s. For the substance “porcine brain microtubules, untreated (α-β-tubulin microtubules) (from UniProt P02550 1-451; P02554 1-445) (complex)”, the vmax of microtubule gliding on dynein-coated slides (fit to Eq. 1) in assay [2] worked out at 1.7 μm/s. “α-βs-tubulin porcine microtubules (10 μg/mL subtilisin) (from UniProt P02550 1-451) (complex)” returned a vmax of microtubule gliding on dynein-coated slides (fit to Eq. 1) in assay [2] of 1.93 μm/s. Still for that read-out and setting: the figure for “αs-βs-tubulin porcine microtubules (200 μg/mL subtilisin) (complex)” is 2.27 μm/s.
